B1: F1*; the commonest letter at each place (parent)
chain: GAGACCGCAACTGAAAAGTTGTTATCACTTGTCGTAAGACACTTTGGATGGGTTGAAGTTCTGCACGTAGAAGCAAAAGGC

Variants of: B1
Experiment: fraction ligated after 30 min (ligated reads / total reads); higher = more ligase activity
Details: with F1*sub RNA substrate (template-directed ligation), 42 °C
Outline: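 Templates from an oligo pool were PCR-amplified, transcribed with T7 and gel-purified to give the ribozyme variants. Ligated and unligated products were separated on gel, reverse transcribed using barcoded primers, and read on a MiSeq. A quality filter of ≥20 was applied to core bases. Fraction ligated was taken as ligated reads as a share of all reads per variant.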
Variant G38A G47T has a fraction ligated of 0.324.
G38A G47A gave a fraction ligated of 0.796.
Variant G38A G47C has a fraction ligated of 0.163.
Work on A39G A41T yielded a fraction ligated of 0.796.
In the case of A39G A41G, the fraction ligated is reported as 0.791.
Variant A39G A41C has a fraction ligated of 0.781.
Variant A39C T43A has a fraction ligated of 0.822.
A39C T43C gave a fraction ligated of 0.815.
Work on A39C T43G yielded a fraction ligated of 0.79.
With G38A the fraction ligated was 0.844.
G38T showed a fraction ligated of 0.852.
G38C was tested, and the fraction ligated was 0.825.
A37T G50T was tested, and the fraction ligated was 0.793.
With A37T G50A the fraction ligated was 0.602.
For A37T G50C, the fraction ligated was 0.388.
G38A A39C showed a fraction ligated of 0.817.
Work on G38A A39T yielded a fraction ligated of 0.829.
For G38A A39G, the fraction ligated was 0.854.
With A39G T43C the fraction ligated was 0.814.
In the case of A39G T43G, the fraction ligated is reported as 0.815.
In the case of A39G T43A, the fraction ligated is reported as 0.838.
A37C T43C showed a fraction ligated of 0.817.
For A37C T43G, the fraction ligated was 0.806.
Work on A37C T43A yielded a fraction ligated of 0.832.
For A37C T49A, the fraction ligated was 0.778.
With A37C T49G the fraction ligated was 0.797.
In the case of A37C T49C, the fraction ligated is reported as 0.737.
Variant A39G G46C has a fraction ligated of 0.781.
With A39G G46T the fraction ligated was 0.783.
A39G G46A showed a fraction ligated of 0.843.
With A37T T43C the fraction ligated was 0.806.
With A37T T43G the fraction ligated was 0.804.
In the case of A37T T43A, the fraction ligated is reported as 0.848.
Work on G38A T49C yielded a fraction ligated of 0.245.
G38A T49A gave a fraction ligated of 0.782.
With G38A T49G the fraction ligated was 0.785.
Work on A37T G47T yielded a fraction ligated of 0.346.
A37T G47C was tested, and the fraction ligated was 0.178.
A37T G47A gave a fraction ligated of 0.806.
Work on G38A C42T yielded a fraction ligated of 0.87.
For G38A C42G, the fraction ligated was 0.837.
Work on G38A C42A yielded a fraction ligated of 0.854.
In the case of A37C G47A, the fraction ligated is reported as 0.796.
With A37C G47T the fraction ligated was 0.406.
Variant A37C G47C has a fraction ligated of 0.444.
With A37C G55C the fraction ligated was 0.826.
A37C G55A showed a fraction ligated of 0.837.
In the case of A37C G55T, the fraction ligated is reported as 0.845.
With A37T G46C the fraction ligated was 0.8.
Work on A37T G46A yielded a fraction ligated of 0.807.
Variant A37T G46T has a fraction ligated of 0.784.
With A39C T44A the fraction ligated was 0.799.
A39C T44C was tested, and the fraction ligated was 0.797.
Work on A39C T44G yielded a fraction ligated of 0.801.
A39C A56G gave a fraction ligated of 0.779.
A39C A56T gave a fraction ligated of 0.771.
A39C A56C showed a fraction ligated of 0.746.
A39C gave a fraction ligated of 0.832.
Variant A39G has a fraction ligated of 0.839.
Variant A37G G55T has a fraction ligated of 0.834.
Variant A37G G55A has a fraction ligated of 0.846.
For A37G G55C, the fraction ligated was 0.833.
Variant A37T T45C has a fraction ligated of 0.768.
A37T T45G gave a fraction ligated of 0.408.
A37T T45A gave a fraction ligated of 0.787.
In the case of G38T G55A, the fraction ligated is reported as 0.823.
Variant G38T G55C has a fraction ligated of 0.781.
With G38T G55T the fraction ligated was 0.798.
Variant A37G A41T has a fraction ligated of 0.859.
Variant A37G A41C has a fraction ligated of 0.787.
A37G A41G was tested, and the fraction ligated was 0.822.
In the case of G38T T45C, the fraction ligated is reported as 0.627.
In the case of G38T T45A, the fraction ligated is reported as 0.783.
Work on G38T T45G yielded a fraction ligated of 0.0535.
G38C A48C showed a fraction ligated of 0.269.
G38C A48G showed a fraction ligated of 0.53.
Variant G38C A48T has a fraction ligated of 0.0108.
With G38A A48T the fraction ligated was 0.252.
Variant G38A A48C has a fraction ligated of 0.766.
G38A A48G was tested, and the fraction ligated was 0.796.
G38T G47T gave a fraction ligated of 0.139.
Work on G38T G47C yielded a fraction ligated of 0.114.
G38T G47A showed a fraction ligated of 0.762.
Variant A37T C42A has a fraction ligated of 0.85.
A37T C42T showed a fraction ligated of 0.858.
In the case of A37T C42G, the fraction ligated is reported as 0.849.
A39G C40G gave a fraction ligated of 0.802.
Variant A39G C40A has a fraction ligated of 0.839.
A39G C40T gave a fraction ligated of 0.844.
In the case of A39C A48C, the fraction ligated is reported as 0.0845.
Work on A39C A48T yielded a fraction ligated of 0.465.
In the case of A39C A48G, the fraction ligated is reported as 0.776.
With A39G G50T the fraction ligated was 0.789.
Work on A39G G50A yielded a fraction ligated of 0.671.
A39G G50C gave a fraction ligated of 0.507.
Work on A39G C42G yielded a fraction ligated of 0.834.
A39G C42A was tested, and the fraction ligated was 0.829.
Work on A39G C42T yielded a fraction ligated of 0.843.
Work on A37G T45C yielded a fraction ligated of 0.803.
A37G T45A gave a fraction ligated of 0.804.
Work on A37G T45G yielded a fraction ligated of 0.407.
For A39G A57G, the fraction ligated was 0.823.
A39G A57C gave a fraction ligated of 0.821.
A39G A57T showed a fraction ligated of 0.829.
G38C T45A gave a fraction ligated of 0.551.
For G38C T45C, the fraction ligated was 0.0602.
With G38C T45G the fraction ligated was 0.0325.
A39C C42G showed a fraction ligated of 0.834.
In the case of A39C C42A, the fraction ligated is reported as 0.842.
For A39C C42T, the fraction ligated was 0.827.
In the case of A39G G47T, the fraction ligated is reported as 0.389.
A39G G47C showed a fraction ligated of 0.343.
Variant A39G G47A has a fraction ligated of 0.795.
A37G T49G showed a fraction ligated of 0.807.
A37G T49C was tested, and the fraction ligated was 0.744.
Work on A37G T49A yielded a fraction ligated of 0.796.
G38C G46C gave a fraction ligated of 0.523.
G38C G46A was tested, and the fraction ligated was 0.791.
G38C G46T showed a fraction ligated of 0.697.
In the case of A37G C40T, the fraction ligated is reported as 0.854.
A37G C40A showed a fraction ligated of 0.807.
Variant A37G C40G has a fraction ligated of 0.829.
Variant G38A T45A has a fraction ligated of 0.773.
Variant G38A T45G has a fraction ligated of 0.0379.
Work on G38A T45C yielded a fraction ligated of 0.696.
With A39G A56G the fraction ligated was 0.792.
A39G A56T gave a fraction ligated of 0.781.
A39G A56C was tested, and the fraction ligated was 0.787.
With A37T A41T the fraction ligated was 0.815.
Work on A37T A41G yielded a fraction ligated of 0.799.
Variant A37T A41C has a fraction ligated of 0.785.
With G38A G55A the fraction ligated was 0.838.
Work on G38A G55C yielded a fraction ligated of 0.781.
In the case of G38A G55T, the fraction ligated is reported as 0.811.
For G38T C40T, the fraction ligated was 0.805.
G38T C40G gave a fraction ligated of 0.82.
G38T C40A showed a fraction ligated of 0.836.
A39G G55C gave a fraction ligated of 0.801.
A39G G55A showed a fraction ligated of 0.844.
For A39G G55T, the fraction ligated was 0.819.
Variant G38C C42G has a fraction ligated of 0.843.
For G38C C42T, the fraction ligated was 0.841.
In the case of G38C C42A, the fraction ligated is reported as 0.857.
With G38C G47C the fraction ligated was 0.0356.
For G38C G47A, the fraction ligated was 0.306.
With G38C G47T the fraction ligated was 0.045.
For G38T A48C, the fraction ligated was 0.757.
G38T A48T was tested, and the fraction ligated was 0.129.
With G38T A48G the fraction ligated was 0.792.
Work on A37G T44A yielded a fraction ligated of 0.839.
A37G T44G gave a fraction ligated of 0.85.
A37G T44C showed a fraction ligated of 0.869.
G38T A41T was tested, and the fraction ligated was 0.798.
G38T A41C showed a fraction ligated of 0.785.
For G38T A41G, the fraction ligated was 0.792.
A37T G55C gave a fraction ligated of 0.8.
With A37T G55T the fraction ligated was 0.828.
With A37T G55A the fraction ligated was 0.862.
With A37C G50A the fraction ligated was 0.616.
Work on A37C G50T yielded a fraction ligated of 0.787.
In the case of A37C G50C, the fraction ligated is reported as 0.439.
With A37T C40T the fraction ligated was 0.842.
A37T C40G showed a fraction ligated of 0.82.
A37T C40A showed a fraction ligated of 0.809.
A37C T44G gave a fraction ligated of 0.859.
Work on A37C T44A yielded a fraction ligated of 0.84.
Variant A37C T44C has a fraction ligated of 0.843.

— the supplement of paper PMC6755084
